Results as given in the supplement of paper PMC11246515.
± gives the standard deviation of the averaged measurements.

Assay: total protein half-life in vivo (active degradation + dilution); higher = more stable protein
[1] = E. coli NCM3722 delta-clpP delta-lon delta-hslV, growth: N-lim chemostat, doubling time 6 h
[2] = E. coli NCM3722 delta-clpP, growth: N-lim chemostat, doubling time 6 h
[3] = E. coli NCM3722 delta-hslV, growth: N-lim chemostat, doubling time 6 h
[4] = E. coli NCM3722 delta-lon, growth: N-lim chemostat, doubling time 6 h
[5] = E. coli NCM3722 delta-smpB, growth: N-lim chemostat, doubling time 6 h
[6] = wild type E. coli NCM3722, growth: C-lim chemostat, doubling time 6 h
[7] = wild type E. coli NCM3722, growth: C-lim chemostat, doubling time 12 h
[8] = wild type E. coli NCM3722, growth: N-lim chemostat, doubling time 6 h
[9] = wild type E. coli NCM3722, growth: N-lim chemostat, doubling time 12 h
[10] = wild type E. coli NCM3722, growth: P-lim chemostat, doubling time 6 h
[11] = wild type E. coli NCM3722, growth: P-lim chemostat, doubling time 12 h
[12] = wild type E. coli NCM3722, growth: C-lim chemostat, doubling time 3 h

Sequence | total protein half-life in vivo [1] [h] | total protein half-life in vivo [2] [h] | total protein half-life in vivo [3] [h] | total protein half-life in vivo [4] [h] | total protein half-life in vivo [5] [h] | total protein half-life in vivo [6] [h] | total protein half-life in vivo [7] [h] | total protein half-life in vivo [8] [h] | total protein half-life in vivo [9] [h] | total protein half-life in vivo [10] [h] | total protein half-life in vivo [11] [h] | total protein half-life in vivo [12] [h]
MTPEHLPTEQYEAQLAEKVVRLQSMMAPFSDLVPEVFRSPVSHYRMRAEFRIWHDGDDLYHIIFDQQTKSRIRVDSFPAASELINQLMTAMIAGVRNNPVLRHKLFQIDYLTTLSNQAVVSLLYHKKLDDEWRQEAEALRDALRAQNLNVHLIGRATKTKIELDQDYIDERLPVAGKEMIYRQVENSFTQPNAAMNIQMLEWALDVTKGSKGDLLELYCGNGNFSLALARNFDRVLATEIAKPSVAAAQYNIAANHIDNVQIIRMAAEEFTQAMNGVREFNRLQGIDLKSYQCETIFVDPPRSGLDSETEKMVQAYPRILYISCNPETLCKNLETLSQTHKVERLALFDQFPYTHHMECGVLLTAK | 6.08 ± 1.6 | 5.19 ± 0.62 | 4.85 ± 0.33 | 5.53 ± 0.082 | 5.35 ± 0.35 | 6.89 ± 0.74 | 12.6 ± 2.2 | 4.83 ± 0.21 | 11.3 ± 2.8 | 5.56 ± 0.39 | 13.8 ± 1.9 | –
MTPGEVRRLYFIIRTFLSYGLDELIPKMRITLPLRLWRYSLFWMPNRHKDKLLGERLRLALQELGPVWIKFGQMLSTRRDLFPPHIADQLALLQDKVAPFDGKLAKQQIEAAMGGLPVEAWFDDFEIKPLASASIAQVHTARLKSNGKEVVIKVIRPDILPVIKADLKLIYRLARWVPRLLPDGRRLRPTEVVREYEKTLIDELNLLRESANAIQLRRNFEDSPMLYIPEVYPDYCSEGMMVMERIYGIPVSDVAALEKNGTNMKLLAERGVQVFFTQVFRDSFFHADMHPGNIFVSYEHPENPKYIGIDCGIVGSLNKEDKRYLAENFIAFFNRDYRKVAELHVDSGWVPPDTNVEEFEFAIRTVCEPIFEKPLAEISFGHVLLNLFNTARRFNMEVQPQLVLLQKTLLYVEGVGRQLYPQLDLWKTAKPFLESWIKDQVGIPALVRAFKEKAPFWVEKMPELPELVYDSLRQGKYLQHSVDKIARELQSNHVRQGQSRYFLGIGATLVLSGTFLLVSRPEWGLMPGWLMAGGLIAWFVGWRKTR [P0A6A0] | 6.52 ± 0.12 | 6.43 ± 0.4 | – | 5.96 ± 0.34 | 5.829 ± 0.037 | 6.626 ± 0.057 | 12.4 ± 1.3 | 6.04 ± 0.33 | 12.3 ± 0.45 | 6.6 ± 0.39 | 12.8 ± 0.67 | –
MTPILNHYFARINWSGAAAVNIDTLRALHLKHNCTIPFENLDVLLPREIQLDNQSPEEKLVIARRGGYCFEQNGVFERVLRELGFNVRSLLGRVVLSNPPALPPRTHRLLLVELEEEKWIADVGFGGQTLTAPIRLVSDLVQTTPHGEYRLLQEGDDWVLQFNHHQHWQSMYRFDLCEQQQSDYVMGNFWSAHWPQSHFRHHLLMCRHLPDGGKLTLTNFHFTHYENGHAVEQRNLPDVASLYAVMQEQFGLGVDDAKHGFTVDELALVMAAFDTHPEAGK | – | 2.34 ± 0.39 | 3.1 | 4.618 ± 0.018 | 2.15 ± 0.18 | 2.81 | 4.65 | 3.11 ± 0.3 | 5.26 ± 0.66 | – | 3.88 | –
MTPLLELKDIRRSYPAGDEQVEVLKGISLDIYAGEMVAIVGASGSGKSTLMNILGCLDKATSGTYRVAGQDVATLDADALAQLRREHFGFIFQRYHLLSHLTAEQNVEVPAVYAGLERKQRLLRAQELLQRLGLEDRTEYYPAQLSGGQQQRVSIARALMNGGQVILADEPTGALDSHSGEEVMAILHQLRDRGHTVIIVTHDPQVAAQAERVIEIRDGEIVRNPPAIEKVNVTGGTEPVVNTVSGWRQFVSGFNEALTMAWRALAANKMRTLLTMLGIIIGIASVVSIVVVGDAAKQMVLADIRSIGTNTIDVYPGKDFGDDDPQYQQALKYDDLIAIQKQPWVASATPAVSQNLRLRYNNVDVAASANGVSGDYFNVYGMTFSEGNTFNQEQLNGRAQVVVLDSNTRRQLFPHKADVVGEVILVGNMPARVIGVAEEKQSMFGSSKVLRVWLPYSTMSGRVMGQSWLNSITVRVKEGFDSAEAEQQLTRLLSLRHGKKDFFTWNMDGVLKTVEKTTRTLQLFLTLVAVISLVVGGIGVMNIMLVSVTERTREIGIRMAVGARASDVLQQFLIEAVLVCLVGGALGITLSLLIAFTLQLFLPGWEIGFSPLALLLAFLCSTVTGILFGWLPARNAARLDPVDALARE | 6.72 ± 0.55 | 6.57 ± 0.25 | 6.77 ± 0.99 | 6.57 ± 1.3 | 5.95 ± 0.35 | 5.92 ± 0.28 | 12.4 ± 0.29 | 6.2 ± 0.35 | 12.6 ± 0.13 | 6.45 ± 0.26 | 11.9 ± 0.64 | 3.15 ± 0.084
MTPLRVFRKTTPLVNTIRLSLLPLAGLSFSAFAAQVNIAPGSLDKALNQYAAHSGFTLSVDASLTRGKQSNGLHGDYDVESGLQQLLDGSGLQVKPLGNNSWTLEPAPAPKEDALTVVGDWLGDARENDVFEHAGARDVIRREDFAKTGATTMREVLNRIPGVSAPENNGTGSHDLAMNFGIRGLNPRLASRSTVLMDGIPVPFAPYGQPQLSLAPVSLGNMDAIDVVRGGGAVRYGPQSVGGVVNFVTRAIPQDFGIEAGVEGQLSPTSSQNNPKETHNLMVGGTADNGFGTALLYSGTRGSDWREHSATRIDDLMLKSKYAPDEVHTFNSLLQYYDGEADMPGGLSRADYDADRWQSTRPYDRFWGRRKLASLGYQFQPDSQHKFNIQGFYTQTLRSGYLEQGKRITLSPRNYWVRGIEPRYSQIFMIGPSAHEVGVGYRYLNESTHEMRYYTATSSGQLPSGSSPYDRDTRSGTEAHAWYLDDKIDIGNWTITPGMRFEHIESYQNNAITGTHEEVSYNAPLPALNVLYHLTDSWNLYANTEGSFGTVQYSQIGKAVQSGNVEPEKARTWELGTRYDDGALTAEMGLFLINFNNQYDSNQTNDTVTARGKTRHTGLETQARYDLGTLTPTLDNVSIYASYAYVNAEIREKGDTYGNLVPFSPKHKGTLGVDYKPGNWTFNLNSDFQSSQFADNANTVKESADGSTGRIPGFMLWGARVAYDFGPQMADLNLAFGVKNIFDQDYFIRSYDDNNKGIYAGQPRTLYMQGSLKF | – | 6.44 ± 0.23 | – | 6.48 | > 8 | – | – | 5.3 ± 0.92 | > 16 | – | – | 3.66
